Reference: paper PMC11063191, “Galectin-3 impairs calcium transients and β-cell function” (Nature Communications, 2024)

Target: T1, Mouse Gal3 protein (recombinant) (mouse, UniProt P16110 1-264)
T1 construct: Galectin-3, mouse, bought protein; R&D is named as the source only for the BLI assay; also called galectin-3; source: bought: R&D
Test: BLI; His-tagged CACNG1 (30-109) captured on Ni-NTA biosensors, Gal3 in a concentration gradient, Octet (ForteBio), 30 °C
Conditions: both partners purified

T1 sequence (P16110 whole entry): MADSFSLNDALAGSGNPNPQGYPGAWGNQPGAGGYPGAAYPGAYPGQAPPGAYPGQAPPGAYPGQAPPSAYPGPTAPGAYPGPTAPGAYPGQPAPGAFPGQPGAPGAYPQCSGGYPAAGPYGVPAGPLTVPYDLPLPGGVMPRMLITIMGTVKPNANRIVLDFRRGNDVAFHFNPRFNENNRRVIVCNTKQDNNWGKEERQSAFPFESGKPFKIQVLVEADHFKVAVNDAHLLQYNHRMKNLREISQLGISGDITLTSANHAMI

B1: Extracellular domains of mouse CACNG1 (30-109 AA) with His tags (domain or fragment, UniProt O70578 30-109, looked up)
chain: DHWAVLSPHLEHHNETCEAAHFGLWRICTARVAVHNKDKSCEHVTPSGEKNCSYFRHFNPGESSEIFEFTTQKEYSISAA
modifications: includes the two glycosylation sites
notes: CACNG1, mouse, extracellular domains, residues 30-109, including the two glycosylation sites
Binder B1 has a Kd of 0.18 µM.
